# In US20210100916A1, “PREPARATION AND USE OF MITOCHONDRION-TARGETING SELF-ASSEMBLED PROTEIN NANOPARTICLE” (PEKING UNIVERSITY, priority 2018, published 2021):
# Columns and labels:
# U87MG cells = assay: ROS content in cells (DCFH-DA probe, confocal imaging); format: cell-based; details: 6 μmo/L, 24 hours, 10 μmol/L DCFH-DA, FIGS. 6 and 7
# Description: Taking U87MG cell line as an example, 5×10^4 U87MG cells were added to a confocal dish and incubated overnight at 37° C. and 5% CO2; GSTP1-MT3(Fe^2+) and GSTP1-MT3(Co^2+) prepared in Example 3 were added to it (the final concentration was 6 μmo/L) and incubated again for 24 hours, and then washed with PBS for three times; then, 10 μmol/L DCFH-DA (ROS probe) was added, incubated at 37° C. for 30 minutes, and washed with PBS for three times; finally, confocal imaging was performed, and statistics was performed on the ROS content.
# [1] = Body weight / toxicity during breast cancer treatment; format: in vivo, Balb/c mice; details: 100 μL of 30 pmol/L tail vein, 5 injections, vs PBS
# Description: Taking the breast cancer of Balb/c mice as an example, 3×10^6 4T1 (stable transfected Luciferase) breast cancer cells were inoculated into Balb/c mice; when the tumor grew to 50-70 mm^3, 100 μL of 30 pmol/L GSTP1-MT3(Co^2+) was injected through the tail vein as the experimental group, and 100μL of PBS was injected through the tail vein as the control group. The injection was performed once every two days, that is, the tail vein injection was performed on the 3rd, 5th, 7th, 9th and 11th day of the experiment, respectively. A total of 5 injections were given. The weights of the mice and the size of the tumor were recorded at different time points.
substance,measurement,setting,value
GSTP1-MT3(Co^2+): Self-assembled protein nanoparticle of MT3-GGGGS-GSTP1 fusion protein (SEQ ID NO: 4) induced by Co^2+,ROS content in cells,U87MG cells,significantly increase
same,"body weights, experimental group vs control group",[1],not much different
same,toxic or side effects on mice,[1],no obvious toxic or side effects
